Measurements taken from paper PMC3121528 (The Journal of Biological Chemistry, 2011).

Legend:
[1] = biological target: FLAG-tagged B14 F130K (vaccinia virus strain Western Reserve) (UniProt P24772); experiment: co-IP
[2] = biological target: FLAG-tagged B14 Y35E (vaccinia virus strain Western Reserve), P24772; experiment: co-IP; conditions: remark: other sources report otherwise
SEC-MALS = biological target: the molecule itself; experiment: SEC-MALS

N-terminally HA-tagged IκB kinase β (IKKβ) (from UniProt O14920 1-756) (enzyme)
co-precipitated IKKβ relative to wild-type B14 (% of wild-type B14) [1]: 1

B1: N-terminally HA-tagged IκB kinase β (IKKβ), O14920 1-756 (enzyme)
chain: MSWSPSLTTQTCGAWEMKERLGTGGFGNVIRWHNQETGEQIAIKQCRQELSPRNRERWCLEIQIMRRLTHPNVVAARDVPEGMQNLAPNDLPLLAMEYCQGGDLRKYLNQFENCCGLREGAILTLLSDIASALRYLHENRIIHRDLKPENIVLQQGEQRLIHKIIDLGYAKELDQGSLCTSFVGTLQYLAPELLEQQKYTVTVDYWSFGTLAFECITGFRPFLPNWQPVQWHSKVRQKSEVDIVVSEDLNGTVKFSSSLPYPNNLNSVLAERLEKWLQLMLMWHPRQRGTDPTYGPNGCFKALDDILNLKLVHILNMVTGTIHTYPVTEDESLQSLKARIQQDTGIPEEDQELLQEAGLALIPDKPATQCISDGKLNEGHTLDMDLVFLFDNSKITYETQISPRPQPESVSCILQEPKRNLAFFQLRKVWGQVWHSIQTLKEDCNRLQQGQRAAMMNLLRNNSCLSKMKNSMASMSQQLKAKLDFFKTSIQIDLEKYSEQTEFGITSDKLLLAWREMEQAVELCGRENEVKLLVERMMALQTDIVDLQRSPMGRKQGGTLDDLEEQARELYRRLREKPRDQRTEGDSQEMVRLLLQAIQSFEKKVRVIYTQLSKTVVCKQKALELLPKVEEVVSLMNEDEKTVVRLQEKRQKELWNLLKIACSKVRGPVSGSPDSMNASRLSQPGQLMSQPSTASNSLPEPAKKSEELVAEAHNLCTLLENAIQDTVREQDQSFTALDWSWLQTEEEEHSCLEQAS
co-precipitated IKKβ relative to wild-type B14 (fold of wild-type B14) [2]: 0.5

B2: N-terminally His6-tagged wild-type B14 (vaccinia virus strain Western Reserve) (natural protein)
chain: MTANFSTHVFSPQHCGCDRLTSIDDVRQCLTEYIYWSSYAYRNRQCAGQLYSTLLSFRDDAELVFIDIRELVKNMPWDDVKDCAEIIRCYIPDEQKTIREISAIIGLCAYAATYWGGEDHPTSNSLNALFVMLEMLNYVDYNIIFRRMN
Kd (SEC-MALS): 20.6 ± 0.9 µM
stoichiometry N (SEC-MALS): 2
